Legend:
[1] = target: HIV-1 Env of pseudovirus AC10 (HIV-1); experiment: cell-based or functional assay
[2] = target: HIV-1 SF162 envelope protein (Env) on pseudotyped virus (HIV-1 isolate SF162) (UniProt P19550); experiment: cell-based or functional assay
[3] = target: HIV-1 ADA envelope glycoprotein (Env), on pseudovirus (HIV-1 isolate ADA); experiment: cell-based or functional assay
[4] = target: HIV-1 Env of isolate MGRM-C-027 (clade C) (HIV-1); experiment: cell-based or functional assay
[5] = target: HIV-1 Env of isolate APV_6 (subtype B), on pseudovirus (HIV-1); experiment: cell-based or functional assay
[6] = target: HIV-1 Env of isolate 6535.3 (subtype B), on pseudovirus (HIV-1); experiment: cell-based or functional assay
[7] = target: HIV-1 Env of isolate MG RM-D-002 (subtype D) (HIV-1); experiment: cell-based or functional assay
[8] = target: HIV-1 Env of isolate MGRM-F1-006 (subtype F) (HIV-1); experiment: cell-based or functional assay
[9] = target: HIV-1 envelope glycoprotein (Env) of isolate MG RM-A-007 (HIV-1); experiment: cell-based or functional assay
[10] = target: HIV-1 Env of isolate MG RM-D-013 (subtype D) (HIV-1); experiment: cell-based or functional assay
[11] = target: HIV-1 Env of isolate MGRM-F1-016 (subtype F) (HIV-1); experiment: cell-based or functional assay
[12] = target: HIV-1 envelope glycoprotein (Env) of isolate 92WR020 (HIV-1); experiment: cell-based or functional assay
[13] = target: HIV-1 Env of isolate MGRM-A-013 (pseudovirus) (HIV-1); experiment: cell-based or functional assay
[14] = target: HIV-1 Env of isolate MGRM-F1-010 (subtype F) (HIV-1); experiment: cell-based or functional assay
[15] = target: HIV-1 Env of isolate MG RM-D-019 (subtype D) (HIV-1); experiment: cell-based or functional assay
[16] = target: HIV-1 Env of isolate MGRM-Chronic-B-012 (subtype B), on pseudovirus (HIV-1); experiment: cell-based or functional assay
[17] = target: HIV-1 Env of isolate APV_17 (subtype B), on pseudovirus (HIV-1); experiment: cell-based or functional assay
[18] = target: HIV-1 Env of isolate MG RM-D-003 (subtype D) (HIV-1); experiment: cell-based or functional assay
[19] = target: HIV-1 envelope glycoprotein (Env) of isolate MG RM-A-009 (HIV-1); experiment: cell-based or functional assay
[20] = target: HIV-1 Env of isolate MG RM-D-008 (subtype D) (HIV-1); experiment: cell-based or functional assay
[21] = target: HIV-1 Env of isolate 92UG024 (subtype D) (HIV-1); experiment: cell-based or functional assay
[22] = target: HIV-1 envelope glycoprotein (Env) of isolate MG RM-A-005 (HIV-1); experiment: cell-based or functional assay
[23] = target: HIV-1 Env of isolate CAAN.A2 (subtype B), on pseudovirus (HIV-1); experiment: cell-based or functional assay
[24] = target: HIV-1 Env of isolate MG RM-D-004 (subtype D) (HIV-1); experiment: cell-based or functional assay
[25] = target: Endo H treated JR-FL gP120 (HIV-1 JR-FL); experiment: ELISA, antigen-coated wells, mAb titrated; EC50 by nonlinear regression
[26] = target: HIV-1 MGRM-D-018 envelope glycoprotein (Env), clade D pseudovirus (HIV-1); experiment: cell-based or functional assay
[27] = target: HIV-1 JR-CSF Env T297A (HIV-1 (isolate JR-CSF, clade B)) (UniProt P20871); experiment: cell-based or functional assay
[28] = target: HIV-1 APV13 envelope glycoprotein (Env), clade B pseudovirus (HIV-1); experiment: cell-based or functional assay
[29] = target: HIV-1 JR-CSF Env G324A (HIV-1 isolate JR-CSF) (UniProt P20871); experiment: cell-based or functional assay
[30] = target: HIV-1 MGRM-C-027 Env (pseudovirus) (HIV-1); experiment: cell-based or functional assay
[31] = target: HIV-1 envelope glycoprotein (Env) of isolate 92TH021 (HIV-1); experiment: cell-based or functional assay
[32] = target: HIV-1 envelope glycoprotein (Env) of isolate JRFL (HIV-1); experiment: cell-based or functional assay
[33] = target: HIV-1 JR-CSF Env N339A (HIV-1 isolate JR-CSF) (UniProt P20871); experiment: cell-based or functional assay
[34] = target: HIV-1 MGRM-D-001 envelope glycoprotein (Env) (HIV-1); experiment: cell-based or functional assay
[35] = target: HIV-1 MGRM-C-027 envelope glycoprotein (Env) (HIV-1); experiment: cell-based or functional assay
[36] = target: HIV-1 JRCSF envelope glycoprotein (Env) (HIV-1) (UniProt P20871); experiment: cell-based or functional assay
[37] = target: HIV-1 Env of isolate APV_13 (subtype B), on pseudovirus (HIV-1); experiment: cell-based or functional assay
[38] = target: HIV-1 Env of isolate MG RM-C-020 (HIV-1); experiment: cell-based or functional assay

1443_C16 (PG16) (TCN-116) (antibody), sequence (VH): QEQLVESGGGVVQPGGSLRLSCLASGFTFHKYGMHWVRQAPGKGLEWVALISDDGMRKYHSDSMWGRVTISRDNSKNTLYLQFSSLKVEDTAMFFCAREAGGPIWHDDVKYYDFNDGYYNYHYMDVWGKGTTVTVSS
1443_C16 (PG16) (TCN-116) (antibody), sequence (VL): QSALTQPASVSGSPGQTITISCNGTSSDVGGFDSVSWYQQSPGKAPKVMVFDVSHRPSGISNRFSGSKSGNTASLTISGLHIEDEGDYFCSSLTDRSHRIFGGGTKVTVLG
5329_C19 (PGT-136) (antibody), sequence (VH): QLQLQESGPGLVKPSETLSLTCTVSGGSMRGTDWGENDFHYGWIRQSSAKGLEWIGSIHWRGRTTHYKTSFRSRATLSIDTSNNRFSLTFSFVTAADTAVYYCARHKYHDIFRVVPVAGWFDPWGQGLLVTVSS
5329_C19 (PGT-136) (antibody), sequence (VL): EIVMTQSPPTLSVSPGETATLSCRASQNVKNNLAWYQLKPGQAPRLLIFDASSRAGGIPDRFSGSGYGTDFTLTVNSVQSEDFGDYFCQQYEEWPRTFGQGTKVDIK

## 1443_C16 (PG16) (TCN-116) (antibody)
[1]
  IC50, pseudovirus neutralization (TZM-bl assay): < 0.01 µg/mL
[2]
  IC50, Neutralizing Antibody Assay, Virus/Ab Incubation 1 hour: > 50 µg/mL
  IC50, Neutralizing Antibody Assay, Virus/Ab Incubation 18 hour: > 50 µg/mL
[3]
  IC50 (ug/ml), pseudovirus neutralization, TZM-bl assay: 0.004 µg/mL

## 1495_C14 (PGC14) (antibody)
[2]
  IC50, Neutralizing Antibody Assay, Virus/Ab Incubation 1 hour: 0.0069 µg/mL
  IC50, Neutralizing Antibody Assay, Virus/Ab Incubation 18 hour: < 0.0025 µg/mL

## 1496_C09 (PG9) (TCN-109) (antibody)
[4]
  neutralization IC50: 2.45 µg/mL
[5]
  IC50, single-round pseudovirus neutralization: 0.181 µg/mL
[6]
  IC50, single-round pseudovirus neutralization: 1.05 µg/mL
[7]
  IC50 (µg/mL), pseudovirus neutralization: 0.021 µg/mL
[8]
  IC50 (µg/mL), pseudovirus neutralization: 7.25 µg/mL
[9]
  IC50: 1.06 µg/mL
[10]
  IC50 (µg/mL), pseudovirus neutralization: 0.021 µg/mL
[11]
  IC50 (µg/mL), pseudovirus neutralization: 0.518 µg/mL
[12]
  IC50: 0.141 µg/mL
[13]
  IC50 (µg/mL), pseudovirus neutralization: 0.122 µg/mL
[14]
  IC50 (µg/mL), pseudovirus neutralization: 0.012 µg/mL
[15]
  IC50 (µg/mL), pseudovirus neutralization: 0.038 µg/mL
[16]
  IC50, single-round pseudovirus neutralization: 0.2 µg/mL
[17]
  IC50, single-round pseudovirus neutralization: 34.8 µg/mL
[18]
  IC50 (µg/mL), pseudovirus neutralization: 0.033 µg/mL
[19]
  IC50: 0.023 µg/mL
[20]
  IC50 (µg/mL), pseudovirus neutralization: 11.5 µg/mL
[21]
  IC50 (µg/mL), pseudovirus neutralization: 1.86 µg/mL
[22]
  IC50: 0.75 µg/mL
[23]
  IC50, single-round pseudovirus neutralization: 19.3 µg/mL
[24]
  IC50 (µg/mL), pseudovirus neutralization: 0.06 µg/mL
[3]
  IC50 (ug/ml), pseudovirus neutralization, TZM-bl assay: 0.2 µg/mL

## 4838_L06 (PGT-121) (antibody)
[25]
  EC50: > 10 µg/mL

## 4858_P08 (PGT-123) (antibody)
[26]
  IC50, pseudovirus neutralization: 0.0047 µg/mL
  IC80 (pseudovirus neutralization): 0.0175 µg/mL
  IC90 (pseudovirus neutralization): 0.0381 µg/mL
  IC95 (pseudovirus neutralization): 0.0791 µg/mL
[27]
  Fold IC50 increase relative to wild-type: 0.3 fold
[28]
  IC50, pseudovirus neutralization: 0.222 µg/mL
  IC80 (pseudovirus neutralization): 0.879 µg/mL
  IC90 (pseudovirus neutralization): 1.87 µg/mL
  IC95 (pseudovirus neutralization): 3.5 µg/mL
[29]
  Fold IC50 increase relative to wild-type: 14.5 fold

## 5123_A06 (PGT-125) (antibody)
[30]
  Neutralization by PGT-125, IC50: > 10 µg/mL
  Neutralization by PGT-125, IC80: > 10 µg/mL
  Neutralization by PGT-125, IC90: > 10 µg/mL
  Neutralization by PGT-125, IC95: > 10 µg/mL

## 5141_B17 (PGT-126) (antibody)
[31]
  Neutralization IC80: 1.62 µg/mL
  Neutralization IC90: 6.91 µg/mL
  Neutralization IC95: > 10 µg/mL
  neutralization IC50: 0.115 µg/mL
[32]
  Neutralization IC80: 0.0454 µg/mL
  Neutralization IC90: 0.09 µg/mL
  Neutralization IC95: 0.169 µg/mL
  neutralization IC50: 0.014 µg/mL

## 5147_N06 (PGT-130) (antibody)
[33]
  Fold IC50 increase relative to wild-type: 0.2 fold
[29]
  Fold IC50 increase relative to wild-type: > 50 fold

## 5329_C19 (PGT-136) (antibody)
[34]
  Neutralization IC80: > 10 µg/mL
  Neutralization IC90: > 10 µg/mL
  Neutralization IC95: > 10 µg/mL
  neutralization IC50: > 10 µg/mL
[35]
  Neutralization IC80: > 10 µg/mL
  Neutralization IC90: > 10 µg/mL
  Neutralization IC95: > 10 µg/mL
  neutralization IC50: > 10 µg/mL
[36]
  Neutralization IC80: > 10 µg/mL
  Neutralization IC90: > 10 µg/mL
  Neutralization IC95: > 10 µg/mL
  neutralization IC50: > 10 µg/mL

## 5343_B08 (PGT-135) (antibody)
[27]
  Fold IC50 increase relative to wild-type: > 30 fold

## PGV04 (antibody)
[5]
  IC50, single-round pseudovirus neutralization: 24.2 µg/mL
[6]
  IC50, single-round pseudovirus neutralization: 0.757 µg/mL
[7]
  IC50 (µg/mL), pseudovirus neutralization: 0.322 µg/mL
[8]
  IC50 (µg/mL), pseudovirus neutralization: > 50 µg/mL
[9]
  IC50: 7.21 µg/mL
[10]
  IC50 (µg/mL), pseudovirus neutralization: 0.088 µg/mL
[11]
  IC50 (µg/mL), pseudovirus neutralization: 0.268 µg/mL
[12]
  IC50: 0.055 µg/mL
[13]
  IC50 (µg/mL), pseudovirus neutralization: 0.086 µg/mL
[14]
  IC50 (µg/mL), pseudovirus neutralization: 0.184 µg/mL
[15]
  IC50 (µg/mL), pseudovirus neutralization: 0.35 µg/mL
[16]
  IC50, single-round pseudovirus neutralization: > 50 µg/mL
[17]
  IC50, single-round pseudovirus neutralization: 0.309 µg/mL
[18]
  IC50 (µg/mL), pseudovirus neutralization: > 50 µg/mL
[19]
  IC50: 0.033 µg/mL
[20]
  IC50 (µg/mL), pseudovirus neutralization: 3.56 µg/mL
[21]
  IC50 (µg/mL), pseudovirus neutralization: 0.201 µg/mL
[22]
  IC50: 0.134 µg/mL
[37]
  IC50, single-round pseudovirus neutralization: 1.23 µg/mL
[23]
  IC50, single-round pseudovirus neutralization: 2.26 µg/mL
[24]
  IC50 (µg/mL), pseudovirus neutralization: 43.2 µg/mL
[38]
  IC50 (µg/mL), pseudovirus neutralization: 0.112 µg/mL

Reference: US20240132578A1
